Paper PMC7601681, “Human Serum Albumin Binds Native Insulin and Aggregable Insulin Fragments and Inhibits Their Aggregation” (Biomolecules, 2020)
Residues, ends and D or L forms follow the SMILES beside them. *: point of attachment. Butanoyl(4-pyren-1-yl) = O=C(CCCc1ccc2ccc3cccc4ccc1c2c34)*

Tests used:
HSA [1] = molecular target: T1, HSA (Homo sapiens, UniProt P02768); test: Time-resolved fluorescence decay of the pyrene label in the presence of HSA; assay type: binding; details: for <τ> average fluorescence lifetime / A1 (amplitude of fast component, aggregate fraction) / A2 (amplitude of slow component, monomer) / τ1 (fast component, aggregate form) / τ2 (slow component, monomer form): 30 μM HSA in PBS, [Py-Ins] 16.38 μM, λem 405 nm; for <τ> average fluorescence lifetime: Equation (2); for A1 (amplitude of fast component, aggregate fraction) / A2 (amplitude of slow component, monomer) / τ1 (fast component, aggregate form) / τ2 (slow component, monomer form): bi-exponential fit
T1 construct: purchased Sigma-Aldrich
Procedure: The solutions of HSA (concentration = 3 10^−5 M) were prepared by dissolving the protein in 0.01 M of phosphate buffer saline (PBS, [NaCl] = 150 mM), pH = 7.2. […] The prepared samples were used within 24 h. […] In order to ensure complete protein hydration, the solutions were stored at room temperature for at least 1 h before measurements. The samples for fluorescence measurements were saturated with argon or deaerated with a vacuum pump.
Time-resolved measurements of HSA fluorescence were performed using a flash photolysis system based on a GL-3300 nitrogen laser (Photon Technology International, Birmingham, NJ, USA) providing single light pulses with a wavelength of 337.1 nm, duration ~800 ps, and average energy 100 µJ. The detection system consisted of a Baush&Lomb monochromator (Rochester, NY, USA), Hamamatsu 1P28 photomultiplier, and a PS325 power supply system (Stanford Research, Sunnyvale, CA, USA). […] All experiments were carried out at room temperature (25 ± 1 °C) using quartz cells with an optical length of 1 cm.

[2] = Absorption spectra of the filtered HSA/Py-Ins complex on storage; assay type: physicochemical; details: [Py-Ins] 16.38 μM, [HSA] 30 μM, filtered through 0.2 µm syringe filter, spectra after 2, 4 and 6 days
Procedure: Broad absorption bands can indicate the presence of Py-Ins aggregates. Therefore, a solution of Py-Ins (1) complex with HSA was filtered through a 0.2 µm syringe filter in order to remove any Py-Ins aggregates, and the stability of the complex was tested for a further 6 days. […] This may indicate that the Py-Ins (1) conjugate was completely bound to the HSA, and that the protein has a protective role in the aggregation process. Additional confirmation of this was provided by the observed linear increase in Py-Ins absorbance for the samples diluted with 30 µM HSA solution (Figure 2, panel IIb).

[3] = Time-resolved fluorescence decay of the pyrene label in buffer or TX-100 (no protein); assay type: physicochemical; details: λexc 337 nm; for <τ> average fluorescence lifetime / A1 (amplitude of fast component, aggregate fraction) / A2 (amplitude of slow component, monomer) / τ1 (fast component, aggregate form) / τ2 (slow component, monomer form): [Py-Ins] 16.38 μM, λem 405 nm; for <τ> average fluorescence lifetime: Equation (2); for A1 (amplitude of fast component, aggregate fraction) / A2 (amplitude of slow component, monomer) / τ1 (fast component, aggregate form) / τ2 (slow component, monomer form): bi-exponential fit
HSA [4] = molecular target: T1, HSA; test: Quenching of pyrene fluorescence by acrylamide (Stern-Volmer) in buffer and HSA solution; assay type: binding; details: [HSA] 30 µM, Stern-Volmer plots
Procedure: Additionally, we examined the quenching of Py-LYQLENY and Py-VEALYL by acrylamide (ACR) in the buffer solution and HSA solution (Figure 5 Stern-Volmer plots).
Figure 5 Stern–Volmer plots for quenching of Py-LYQLENY and Py-VEALYL by ACR in the buffer and HSA solution. I0 is fluorescence intensity without quencher, I—fluorescence intensity at various concentrations of ACR, [HSA] = 30 µM.

[5] = Solubility and aggregation of pyrene-labeled peptides seen by absorption and fluorescence; details: for solubility in ethanol and methanol: judged from narrow absorption bands
Procedure: The solutions of HSA (concentration = 3 10^−5 M) were prepared by dissolving the protein in 0.01 M of phosphate buffer saline (PBS, [NaCl] = 150 mM), pH = 7.2. […] The prepared samples were used within 24 h. […] The concentration of HSA was verified spectrophotometrically using the molar absorption coefficient 35500 M^−1cm^−1 at 280 nm for HSA [61]. In order to ensure complete protein hydration, the solutions were stored at room temperature for at least 1 h before measurements. The samples for fluorescence measurements were saturated with argon or deaerated with a vacuum pump.
The absorbances of Py-LYQLENY and Py-VEALYL were determined in 10 mM standard PBS solution, ethanol, methanol, and 10 mM TX-100. The spectra were normalized to a maximum of S0→S2 […]
band (Figure 4, panel I).
(1 picture or pasted object on this page, not shown here)
Fig. S7. Panel I: Normalized absorption spectra of Py-LYQLENY (a) and Py-VEALYL (b) in different solvents. Panel II: Normalized emission spectra of Py-LYQLENY (a) and Py-VEALYL (b) in different […]
We also investigated the solubility of Py-LYQLENY conjugate (2) in dioxane.
This allowed the molar coefficient absorbance to be determined, using the gravimetric […]
The addition of a small amount of concentrated
Py-LYQLENY stock solution in dioxane to the buffer solution enabled the molar absorbance coefficient […]
In order to investigate the possible aggregation of the fluorescence labeled insulin hot spots in the buffer solution, spectrophotometric titration was performed for Py -LYQLENY (2) in a range of concentration from 2.9 to 56.4 µM. Titration was carried out until there were no significant changes in fluorescence intensity.
The fluorescence spectra were recorded for each concentration (Figure 5a). After normalization of the […]
Fig. S8. Fluorescence spectra of Py-LYQLENY in PBS solutions recorded for the given probe

HSA [6] = molecular target: T1, HSA; test: Steady-state fluorescence titration with HSA (binding constant Kb); details: Py-LYQLENY 3 µM in buffer, fluorescence intensity as function of HSA concentration (plateau at 45 µM), Equation (3)
Procedure: The prepared samples were used within 24 h.
Steady-state absorption and fluorescence spectra were recorded at a resolution of 0.5 nm using an Aminco Bowman AB2 Series spectrofluorometer (Thermo Fisher Scientific Inc., Waltham, MA, USA). Unless otherwise indicated, in emission measurements, the excitation wavelength was 337 nm, and excitation and emission slits were set to 2.0 and 0.5 nm, respectively.
For Py-LYQLENY conjugate (2), the binding constants Kb were calculated according to Equation (3) proposed by Kuzmin et al.:θ = Kb·[HSA] / (1+ Kb·[HSA])(3) where [HSA] is the concentration of the albumin [61], θ = (I − I0)/(I∞ − I0) is the fraction of the pyrene probe bound with HSA, I0 is fluorescence intensity without HSA, I∞ is fluorescence intensity with [HSA] = 45 µM (reaching a plateau, Figure 6b) and I is the fluorescence intensity for subsequent […].
The calculated value also confirmed existence of interactions between 2 and HSA with pyrene fragment presented on less polar environment inside protein. […] The binding constants 1.5 ± 0.3 × 10^6 dm^3 mol^−1 to 6.5 ± 0.4 × 10^7 dm^3 mol^−1 were calculated for complexes of HSA with Py-hydrophobic peptide.

## Py-Ins: derivative of human insulin labeled with 4-(1-pyrene)butyric acid
HSA [1]; filtered, λexc 337 nm
  <τ> average fluorescence lifetime: 145.6 ns
  A1 (amplitude of fast component, aggregate fraction): 0.2
  A2 (amplitude of slow component, monomer): 0.8
  τ1 (fast component, aggregate form): 19.4 ns
  τ2 (slow component, monomer form): 150.4 ns
HSA [1]; non-filtered, λexc 337 nm
  <τ> average fluorescence lifetime: 133.6 ns
  A1 (amplitude of fast component, aggregate fraction): 0.4
  A2 (amplitude of slow component, monomer): 0.6
  τ1 (fast component, aggregate form): 19.1 ns
  τ2 (slow component, monomer form): 143.8 ns
HSA [1]; diluted Py-Ins/HSA solutions, [Py-Ins]/[HSA] = 0.11, data not shown
  aggregate fraction: about 20%
[2]
  stability of the HSA complex / aggregation: changes of absorption spectra on storage: no changes were observed
[3]; 20 mM TX-100, filtered
  <τ> average fluorescence lifetime: 161.2 ns
  A1 (amplitude of fast component, aggregate fraction): 0.1
  A2 (amplitude of slow component, monomer): 0.9
  τ1 (fast component, aggregate form): 18.2 ns
  τ2 (slow component, monomer form): 162.0 ns
[3]; 20 mM TX-100, non-filtered
  <τ> average fluorescence lifetime: 147.9 ns
  A1 (amplitude of fast component, aggregate fraction): 0.2
  A2 (amplitude of slow component, monomer): 0.8
  τ2 (slow component, monomer form): 152.7 ns
[3]; PBS buffer, filtered
  A1 (amplitude of fast component, aggregate fraction): 0.2
  A2 (amplitude of slow component, monomer): 0.8
  τ1 (fast component, aggregate form): 20.1 ns
  τ2 (slow component, monomer form): 98.8 ns
[3]; PBS buffer, non-filtered
  <τ> average fluorescence lifetime: 86.6 ns
  A1 (amplitude of fast component, aggregate fraction): 0.5
  A2 (amplitude of slow component, monomer): 0.5
  τ2 (slow component, monomer form): 98.4 ns

## CC(C)C[C@H](NC(=O)[C@H](Cc1ccc(O)cc1)NC(=O)[C@H](CC(C)C)NC(=O)[C@H](C)NC(=O)[C@H](CCC(=O)O)NC(=O)[C@@H](NC(=O)CCCc1ccc2ccc3cccc4ccc1c2c34)C(C)C)C(=O)O [Py-VEALYL, Py-VEALYL-OH] ({Butanoyl(4-pyren-1-yl)}-VEALYL-OH)
HSA [4]
  quenching by acrylamide in the presence of HSA versus buffer (slope of I0/I vs. ACR concentration): protected against interaction with the quencher
HSA [1]; [HSA] 30 μM, bi-exponential kinetics, average lifetime by Equation (2), λexc 337 nm, λem 400 nm
  τHSA, lifetime of fluorescence decay in the presence of HSA: 153.9 ns
[5]
  solubility in aqua media in the presence of HSA: increased significantly
  solubility in ethanol and methanol: good
[5]; 0.01 M PBS, 150 mM NaCl, pH 7.2
  aggregation in buffer solution: partial aggregation
[3]; PBS, mono-exponential kinetics, λem 400 nm, short lifetime taken as sign of aggregation
  τPBS, lifetime of fluorescence decay in PBS: 43.9 ns

## CC(C)C[C@H](NC(=O)CCCc1ccc2ccc3cccc4ccc1c2c34)C(=O)N[C@@H](Cc1ccc(O)cc1)C(=O)N[C@@H](CCC(N)=O)C(=O)N[C@@H](CC(C)C)C(=O)N[C@@H](CCC(=O)O)C(=O)N[C@@H](CC(N)=O)C(=O)N[C@@H](Cc1ccc(O)cc1)C(=O)O [Py-LYQLENY, Py-LYQLENY-OH] ({Butanoyl(4-pyren-1-yl)}-LYQLENY-OH)
[5]
  solubility in aqua media in the presence of HSA: increased significantly
  solubility in dioxane: dissolved relatively well
  solubility in ethanol and methanol: good
[5]; PBS
  solubility in the buffer solution compared with dioxane: lower
HSA [6]
  binding constant Kb: 2 × 10^5 dm^3 mol^−1
